The record followed here is PMC7946651, “The Recombinant Luciferase of the Fungus Neonothopanus nambi: Obtaining and Properties” (Doklady. Biochemistry and Biophysics, 2021).

Substrate in the data set: O=c1oc(/C=C/c2ccc(O)c(O)c2)cc(O)c1O
The data set is described as follows: bioluminescence, initial light intensity, Michaelis-Menten fit. Format: biochemical, Neonothopanus nambi. The conditions noted are these: 50 nM enzyme, 200 mM Na-phosphate pH 8.0, 500 mM Na2SO4, 0.1% DDM, room temperature, luciferin 2 nM to 50 μM.

B1: recombinant N. nambi luciferase (nnLuz) (Neonothopanus nambi) (protein)
chain: MRINISLSSLFERLSKLSSRSIAITCGVVLASAIAFPIIRRDYQTFLEVGPSYAPQNFRGYIIVCVLSLFRQEQKGLAIYDRLPEKRRWLADLPFREGTRPSITSHIIQRQRTQLVDQEFATRELIDKVIPRVQARHTDKTFLSTSKFEFHAKAIFLLPSIPINDPLNIPSHDTVRRTKREIAHMHDYHDCTLHLALAAQDGKEVLKKGWGQRHPLAGPGVPGPPTEWTFLYAPRNEEEARVVEMIVEASIGYMTNDPAGKIVENAK
notes: expressed in Pichia pastoris GS115; membrane protein solubilized and purified in DDM
As to B1, the Km is 1.09 ± 0.06 µM.

In general, Km refers to the substrate concentration at which the rate is half of its maximum.
